Data: IntAct's records for PubMed 29039417

B1: Protein PTHB1 (Homo sapiens), Q3SYG4 (parent)
chain: MSLFKARDWWSTILGDKEEFDQGCLCLANVDNSGNGQDKIIVGSFMGYLRIFSPHPAKTGDGAQAEDLLLEVDLRDPVLQVEVGKFVSGTEMLHLAVLHSRKLCVYSVSGTLGNVEHGNQCQMKLMYEHNLQRTACNMTYGSFGGVKGRDLICIQSMDGMLMVFEQESYAFGRFLPGFLLPGPLAYSSRTDSFLTVSSCQQVESYKYQVLAFATDADKRQETEQQKLGSGKRLVVDWTLNIGEQALDICIVSFNQSASSVFVLGERNFFCLKDNGQIRFMKKLDWSPSCFLPYCSVSEGTINTLIGNHNNMLHIYQDVTLKWATQLPHIPVAVRVGCLHDLKGVIVTLSDDGHLQCSYLGTDPSLFQAPNVQSRELNYDELDVEMKELQKIIKDVNKSQGVWPMTEREDDLNVSVVVSPNFDSVSQATDVEVGTDLVPSVTVKVTLQNRVILQKAKLSVYVQPPLELTCDQFTFEFMTPDLTRTVSFSVYLKRSYTPSELEGNAVVSYSRPTDRNPDGIPRVIQCKFRLPLKLICLPGQPSKTASHKITIDTNKSPVSLLSLFPGFASQSDDDQVNVMGFHFLGGARITVLASKTSQRYRIQSEQFEDLWLITNELILRLQEYFEKQGVKDFACSFSGSIPLQEYFELIDHHFELRINGEKLEELLSERAVQFRAIQRRLLARFKDKTPAPLQHLDTLLDGTYKQVIALADAVEENQGNLFQSFTRLKSATHLVILLIALWQKLSADQVAILEAAFLPLQEDTQELGWEETVDAAISHLLKTCLSKSSKEQALNLNSQLNIPKDTSQLKKHITLLCDRLSKGGRLCLSTDAAAPQTMVMPGGCTTIPESDLEERSVEQDSTELFTNHRHLTAETPRPEVSPLQGVSE
partner: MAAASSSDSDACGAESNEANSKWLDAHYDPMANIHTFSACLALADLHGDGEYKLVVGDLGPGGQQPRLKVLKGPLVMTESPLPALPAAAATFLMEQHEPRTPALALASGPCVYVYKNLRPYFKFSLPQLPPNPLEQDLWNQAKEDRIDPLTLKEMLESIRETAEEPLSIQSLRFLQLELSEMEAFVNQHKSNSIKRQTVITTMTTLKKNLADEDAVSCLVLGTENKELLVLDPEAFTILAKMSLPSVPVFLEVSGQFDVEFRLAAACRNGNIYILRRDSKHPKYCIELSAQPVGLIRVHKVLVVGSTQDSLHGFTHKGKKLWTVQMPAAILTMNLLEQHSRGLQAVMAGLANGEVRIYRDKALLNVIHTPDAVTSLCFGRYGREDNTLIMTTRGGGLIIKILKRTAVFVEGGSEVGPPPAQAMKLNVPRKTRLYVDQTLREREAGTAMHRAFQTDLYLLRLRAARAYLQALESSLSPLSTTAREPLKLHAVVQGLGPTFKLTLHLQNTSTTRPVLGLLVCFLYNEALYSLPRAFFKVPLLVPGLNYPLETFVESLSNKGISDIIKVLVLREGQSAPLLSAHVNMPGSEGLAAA

Variants of: B1
Settings: with bbs1_human BBS1, Q8NFJ9

| Variant | effect of a mutation on the interaction |
| --- | --- |
| L591E | with no effect |
| L591K | with no effect |
| A592E | with no effect |
| A592K | with no effect |
| A592V | disrupting interaction strength |
| S593A | with no effect |
| S593E | with no effect |
| S593K | with no effect |
| K594A | with no effect |
| K594E | with no effect |
| T595A | with no effect |
| T595E | with no effect |
| T595K | with no effect |
| S596A | with no effect |
| S596E | with no effect |
| S596K | with no effect |
| Q597A | with no effect |
| Q597E | with no effect |
| Q597K | with no effect |
| Q597R | disrupting interaction strength |
| R598A | with no effect |
| R598E | with no effect |
| R598K | with no effect |
| R598S | disrupting interaction strength |
| Y599A | with no effect |
| Y599E | with no effect |

| Variant | effect of a mutation on the interaction |
| --- | --- |
| Y599K | with no effect |
| R600A | with no effect |
| R600E | with no effect |
| R600G | disrupting interaction strength |
| R600K | with no effect |
| I601A | with no effect |
| I601E | with no effect |
| I601K | with no effect |
| Q602A | with no effect |
| Q602E | with no effect |
| Q602K | with no effect |
| S603A | with no effect |
| S603E | with no effect |
| S603K | with no effect |
| E604A | with no effect |
| E604K | with no effect |
| E604V | disrupting interaction strength |
| Q605A | with no effect |
| Q605E | with no effect |
| Q605K | with no effect |
| F606A | with no effect |
| F606E | with no effect |
| F606K | with no effect |
| E607A | with no effect |
| E607K | with no effect |
| E607V | disrupting interaction strength |

| Variant | effect of a mutation on the interaction |
| --- | --- |
| D608A | with no effect |
| D608E | with no effect |
| D608K | with no effect |
| L609A | with no effect |
| L609E | with no effect |
| L609K | with no effect |
| W610A | with no effect |
| W610E | with no effect |
| W610K | with no effect |
| L611A | with no effect |
| L611E | with no effect |
| L611K | with no effect |
| I612A | with no effect |
| I612E | with no effect |
| I612K | with no effect |
| T613A | with no effect |
| T613E | with no effect |
| T613I | disrupting interaction strength |
| T613K | with no effect |
| N614A | with no effect |
| N614E | with no effect |
| N614K | with no effect |
| E615A | with no effect |
| E615K | with no effect |
| L616A | with no effect |
| L616E | with no effect |

| Variant | effect of a mutation on the interaction |
| --- | --- |
| L616F | disrupting interaction strength |
| L616K | with no effect |
| L616P | disrupting interaction strength |
| I617A | with no effect |
| I617E | with no effect |
| I617K | with no effect |
| L618A | with no effect |
| L618E | with no effect |
| L618F | disrupting interaction strength |
| L618K | with no effect |
| R619A | with no effect |
| R619C | disrupting interaction strength |
| R619E | with no effect |
| R619K | with no effect |
| L620A | with no effect |
| L620E | with no effect |
| L620F | disrupting interaction strength |
| L620K | with no effect |
| Q621A | with no effect |
| Q621E | with no effect |
| Q621K | with no effect |
| E622A | with no effect |
| E622K | disrupting interaction strength |
| Y623A | with no effect |
| Y623E | with no effect |
| Y623K | with no effect |

| Variant | effect of a mutation on the interaction |
| --- | --- |
| F624A | with no effect |
| F624E | with no effect |
| F624K | with no effect |
| E625A | with no effect |
| E625K | with no effect |
| K626A | with no effect |
| K626E | with no effect |
| Q627A | with no effect |
| Q627E | with no effect |
| Q627K | with no effect |
| Q627T | disrupting interaction strength |
| G628A | with no effect |
| G628E | with no effect |
| G628K | with no effect |
| V629A | with no effect |
| V629E | with no effect |
| V629K | with no effect |
| K630A | with no effect |
| K630E | with no effect |
| D631A | with no effect |
| D631E | with no effect |
| D631K | with no effect |
| F632A | with no effect |
| F632E | with no effect |
| F632K | with no effect |
| A633E | with no effect |

| Variant | effect of a mutation on the interaction |
| --- | --- |
| A633K | with no effect |
| A633V | disrupting interaction strength |
| C634A | with no effect |
| C634E | with no effect |
| C634K | with no effect |
| C634S | disrupting interaction strength |
| S635A | with no effect |
| S635E | with no effect |
| S635K | with no effect |
| F636A | with no effect |
| F636E | with no effect |
| F636K | with no effect |
| S637A | with no effect |
| S637E | with no effect |
| S637K | with no effect |
| G638A | with no effect |
| G638E | with no effect |
| G638K | with no effect |
| S639A | with no effect |
| S639E | with no effect |
| S639K | with no effect |
| I640A | with no effect |
| I640E | with no effect |
| I640K | with no effect |
| P641A | with no effect |
| P641E | with no effect |

| Variant | effect of a mutation on the interaction |
| --- | --- |
| P641K | with no effect |
| L642A | with no effect |
| L642E | with no effect |
| L642K | with no effect |
| Q643A | with no effect |
| Q643E | with no effect |
| Q643K | with no effect |
| E644A | with no effect |
| E644K | with no effect |
| Y645A | with no effect |
| Y645E | with no effect |
| Y645K | with no effect |
| F646A | with no effect |
| F646E | with no effect |
| F646K | with no effect |
| E647A | with no effect |
| E647K | with no effect |
| L648A | with no effect |
| L648E | with no effect |
| L648K | with no effect |
| I649A | with no effect |
| I649E | with no effect |
| I649K | with no effect |
